The values below come from the DeepSol protein solubility set.

A short description of the data set: soluble on expression in E. coli; label from the status in PepcDB or PDB records.
Consider “MGKKHKKHKSDKHLYEEYVEKPLKLVLKVGGNEVTELSTGSSGHDSSLFEDKNDHDKHKDRKRKKRKKGEKQIPGEEKGRKRRRVKEDKKKRDRDRVENEAEKDLQCHAPVRLDLPPEKPLTSSLAKQEEVEQTPLQEALNQLMRQLQRKDPSAFFSFPVTDFIAPGYSMIIKHPMDFSTMKEKIKNNDYQSIEELKDNFKLMCTNAMIYNKPETIYYKAAKKLLHSGMKILSQERIQSLKQSIDFMADLQKTRKQKDGTDTSQSGEDGGCWQREREDSGDAEAHAFKSPSKENKKKDKDMLEDKFKSNNLEREQEQLDRIVKESGGKLTRRLVNSQCEFERRKPDGTTTLGLLHPVDPIVGEPGYCPVRLGMTTGRLQSGVNTLQGFKEDKRNKVTPVLYLNYGPYSSYAPHYDSTFANISKDDSDLIYSTYGEDSDLPSDFSIHEFLATCQDYPYVMADSLLDVLTKGGHSRTLQEMEMSLPEDEGHTRTLDTAKEMEITEVEPPGRLDSSTQDRLIALKAVTNFGVPVEVFDSEEAEIFQKKLDETTRLLRELQEAQNERLSTRPPPNMICLLGPSYREMHLAEQVTNNLKELAQQVTPGDIVSTYGVRKAMGISIPSPVMENNFVDLTEDTEEPKKTDVAECGPGGS”, for which the “soluble on expression in E. coli” value was “soluble”. As for “MGKKYEIFLNENEHSLITPKVSFKEILRYYYLYPKNAIPSFKLPFFKPDLSGFSTPHITWLGHSSLFISFKEYKILIDPIFNTHASPISFINKAFKNAPVYNINDFNEIFAVIITHSHFDHLDAKSVKALKDKAKFFITPLKVGNYLKSYGVSEKKIIELDWWSGIEFGDLKIMATPAQHSSSRGDGKNKTLWASFVMEFLSVDKRVFFSADGGYFTHFKKIGEYFGSFDLACLESGQFNIAWPYSHSFPEQILKEAKDLNAKAVMPIHWGRFLAGTHAWNEVVKFLYENLDLPLITPKMGEAYEVGAKLEHHHHHH”, the “soluble on expression in E. coli” value was “soluble”. As for “MGKVLVIYDTRTGNTKKMAELVAEGARSLEGTEVRLKHVDEATKEDVLWADGLAVGSPTNMGLVSWKMKRFFDDVLGDLWGEIDGKIACAFSSSGGWGGGNEVACMSILTMLMNFGFLVFGVTDYVGKKFTLHYGAVVAGEPRSEEEKEACRRLGRRLAEWVAIFVDGRKELLEKIRKDPARFVD”, the “soluble on expression in E. coli” value was “soluble”. Under “MGKVPEEVRSYLMEAHSLAGQWSLPNDRGDHTNSEAYDVNSVAIIGGGTMGKAMAICFGLAGIETFLVVRNEQRCKQELEVMYAREKSFKRLNDKRIEKINANLKITSDFHKLSNCDLIVESVIEDMKLKKELFANLENICKSTCIFGTNTSSLDLNEISSVLRDPSNLVGIHFFNPANVIRLVEIIYGSHTSSQAIATAFQACESIKKLPVLVGNCKSFVFNRLLHVYFDQSQKLMYEYGYLPHQIDKIITNFGFLMGPMTVADMNGFDVMEKLKKENGLEPNPIEKEMWRLKRYGRKTNKGFYKYDDKTQRKENDTEMEQIIRRVSQNAKSNIQIINDQDVINFMLYPTVNEGYRCIEEGVISNESLIDIMFILGFGWPIHSGGPMRFGKTEGLDKIANMLVHWSSLEPKESAYIVADALKTANNKLMSSKL” stands “soluble”.

As for “MGLFDRIKRVVSANLNDLVNKAEDPEKMLEQAILEMQEDLVQLRQGVAQAIAAQKRTEKQYSDAQNEINKWQRNAQLALQKGDENLARQALERKKTYTETGTALKTSLDQQSTQVETLKRNLIQLESKISEAKTKKEMLKARITTAKAQEQLEGMVRGMNSSSAMAAFERMEEKVLMQEARAQSAAELAGADLETQFARLESGSDVDDELAALKASLAPAPEQNLLPPQQQEQQSTAPKSKEVVDSELDALRKQLDQL”, the “soluble on expression in E. coli” value is recorded as “not soluble”. Under “MGLLIEGRWHDQWYESGKDGAFQREQAQRRNWVTADGRPGPSGEGGFAAEAGRYHLYVSLACPWAHRTLILRKLKGLEQLIDVSVVSWLMRENGWTFDSAHGSSGDALDHFDFMHQRYTADTADYTGRVTVPVLWDKQQQRIVSNESAEIIRMFNSAFDGLTGNGLDFYPQPLRARIDELNARIYPALNNGVYRAGFATSQQAYETAFDDVFAELDALEALLDKQRYLAGEYLTEADVRLFTTLIRFDAVYHGHFKCNLRRIADYPNLSNWLRELYQWPGIAETVDFAHIKGHYYASHTTINPTGIVPKGPLQDFSRAHDRQRLSGQGVWCRGLEHHHHHH” stands “not soluble”. Under “MGLLKALLGFDRRDIETLARSNEENRRRIEALEAALARLEERISSISQALGRDARSTESLQGVEKEGGRETEYEGHNGTVEEGMLEDEGIIISHLEKGDATPSELIRDTGLSKNRVYGVLKRLVERGIVEKRRDGRRVVYSLRRVEAQADAPG” stands “not soluble”.

For “MGMIQLQNPSHPTGLLCKANQMRLAGTLCDVVIMVDSQEFHAHRTVLACTSKMFEILFHRNSQHYTLDFLSPKTFQQILEYAYTATLQAKAEDLDDLLYAAEILEIEYLEEQCLKMLETIQ”, the “soluble on expression in E. coli” value was “soluble”. As to “MGNAAAYQRYRRPDCATEIDFSTENHSGREKIMSESLSWMQTGDTLALSGELDQDVLLPLWEMREEAVKGITCIDLSRVSRVDTGGLALLLHLIDLAKKQGNNVTLQGVNDKVYTLAKLYNLPADVLPR”, the “soluble on expression in E. coli” value was “not soluble”. For the sequence “MGNCLFGGLGDEEEDLLIKVIKSDGGVLEFYSPVTAGFVSHGFSGHALFSAVDLLWKPLAHDHLLVPGQSYYLFPNIVSDELKTFVGSCHVRSNSESLSAITPYRMSLDYNHRVLKRSYTDVFSRNSHIRTRQKEKKTRRRRTSSKGAIWKVNLIINTEELLQILSEDGRTNELIESVRAVAKGETSSITSSSSENFLSVVQT”, the “soluble on expression in E. coli” value is reported as “soluble”. In the case of “MGNDKRSQIFTLSRYAGILRRCLKENAMSAQKPGLHPRNRHHSRYDLATLCQVNPELRQFLTLTPAGEQSVDFANPLAVKALNKALLAHFYAVANWDIPDGFLCPPVPGRADYIHHLADLLAEASGTIPANASILDIGVGANCIYPLIGVHEYGWRFTGSETSSQALSSAQAIISSNPGLNRAIRLRRQKESGAIFNGIIHKNEQYDATLCNPPFHDSAAAARAGSERKRRNLGLNKDDALNFGGQQQELWCEGGEVTFIKKMIEESKGFAKQVMWFTSLVSRGENLPPLYRALTDVGAVKVVKKEMAQGQKQSRFIAWTFMNDEQRRRFVNRQRLEHHHHHH”, the “soluble on expression in E. coli” value is “not soluble”. Under “MGQDTDMLNTYQQLVRTPSVRPGQDVRLQAPGTRTGLLKLLSTVSQDKQGCLGSGDGVPNQDLQQRSQSSRQTAKKDRKPRGQSKKGQGSEESEDHFPLLPRKPSFPFQWAWESIATDVRAVLQPSSPTPGHQALPMPSSFSQRQSRRKSTANLPEAHGCCWKTEAQNLKARQQLGAWGGVSIPTGKGELGSEPPSGLQLPGRRPGSGSASDKQVQLQSLGAEEAERGLSSGVLPQRPRRGSISEEEQFSEATEEAEEGEHRTPCRRRAGCQRKGQISGEEASDEGEVQGQSQGSSPSFNNLRRRQWRKTRAKELQGPWDLEKLHRQLQRDLDCGPQKLPWKTLRAAFQASKRNGKAYASGYDETFVSANLPNRTFHKRQEATRSLLQAWERQRQEERQQAELRRARTQHVQRQVAHCLAAYAPRGSRGPGAAQRKLEELRRQERQRFAEYQAELQGIQHRVQARPFLFQQAMQANARLTVTRRFSQVLSALGLDEEQLLSEAGKVDREGTPRKPRSHRSVGVRMEHSPQRPPRTEPTGSQPDRHYNPSLDPECSP” stands “not soluble”; under “MGQKKYVELSKDIFIFSYLCGGINFTDIANLTQENIVNGRLHYIRQKTGKLIKIGIPQEAMQIIKKYTDESNGYLFPILNVKVHKTALQKQNRIHKIRGKVNDILKTLGKRLGIEANITTYVARHSFASVLKKSGVNIALISEALGHSDLATTQIYLDSFDNEQVDEAMKNLLEHHHHHH”, “soluble”; under “MGQLIDGVWHDTWYDTKSTGGKFQRSASAFRNWLTADGAPGPTGTGGFIAEKDRYHLYVSLACPWAHRTLIMRKLKGLEPFISVSVVNPLMLENGWTFDDSFPGATGDTLYQNEFLYQLYLHADPHYSGRVTVPVLWDKKNHTIVSNESAEIIRMFNTAFDALGAKAGDYYPPALQTKIDELNGWIYDTVNNGVYKAGFATSQEAYDEAVAKVFESLARLEQILGQHRYLTGNQLTEADIRLWTTLVRFDPVYVTHFKCDKHRISDYLNLYGFLRDIYQMPGIAETVNFDHIRNHYFRSHKTINPTGIISIGPWQDLDEPHGRDVRFGLEHHHHHH”, “soluble”. Take “MGREALGKCPVCNNETTITRITCEKCNTTIEGRFDLCKFCRLTPEQKLFVDVFIKCRGNIKEVEKELGVSYPTVKNKLEDVANALGHKSEEAPVEETNRKEILDKLYEGEISVDEALELLKG”: the “soluble on expression in E. coli” value is given as “not soluble”.

Regarding “MGRGRKHTDAAAEQRELAIKANIVDEPFSVSAIDRSIRKAEWVKTETDQILSGRCPETDGTWLGISTRGRVAFLVEAGTINRDRFNGAESRTLEFLESNESPEDFAKSSAADYIRNKNTAAFHLIVADIASNSMLYISKPRFSDYGIVYTEPVGPGVHTLSSAGLDSDVGYRDLRMRHSFCEMINRERLPPIRDIAEIMYDPVKAYESVLLSSIFFVDMKIGYEHYGTRITTALVVKRTKEVLFFERYREIFNDDWDDHDFAFTII”, the “soluble on expression in E. coli” value is “not soluble”.

In the case of “MGRMIDGDWRTEADMNEHSDDGAFERDTTSFRHWVGDDVPPAAGRYHLYVSYACPWAHRTLLVRALLGLEDAISVSVVDPVRYDQGWTFDPEKPGCTPDHVFGGTHLRDVYTEADPEYTGRVTVPVLYDTDADTIVNNESEEIMRMLDVAFDDHAARDVDLYPEGYRDEVDRLIEDIYDPINNGVYRAGFADSQRAYDNAVDDLFEALAHYDDVLAEQRYLAGDVLTEADVAMFTTLYRFDEVYHTHFKCNRKRISDYDNLWPYLRELCQLPGVADTLYMEHVKQHYYRSHGHLNPKRLVPTGPNPAFFAPHDRDQLEHHHHHH”, the “soluble on expression in E. coli” value was “not soluble”. Under “MGRMSEKLGQDIKQSIFKVPPLIQKSDIDPEHCRVSAQLDDNVDDNIPLRVMLLLMDEVFDLKDRNQWLRRNIKNLLQQLIKATYGDTINRKIVDHVDNMTSPEQVSDYVKRFRDSYWPNGILAETPPRRDKNLRMRTRVAAKTTLLGIMPDELKHIIGADTTRKGILRVFEMFQHQPLNRRLVYVFLEGFLETLFPQYKFPELFEKLHSRSPRVLKYSHKLRSLQKR” stands “not soluble”. Under “MGRQIPPDPVFGDVLVAKLINRVMWDGKKTIAQKIVYGAFDIIREKTKKDPLEVFRQAVENVKPVLEVRPRRVGGATYQVPIEVQEPRRTSLALRWIVEAARAKKGRPMKEKLAEEIIAAYNNTGTAIKKKEDTHRMAEANRAFAHYRW” stands “soluble”. Under “MGRVFKKKGGAKREAEEEKQEELVMRKKLRKEEEPEPVEDVEEDEDVSDEDDEDIDDEEEDEDEQNIMDFDFEAYPPSEDDRDGIVNMLTQTFLRTDIDLKAMSEGIIAKAPHGVVLTQAYDDEETEEDYMAYGLCTTVPLNDNKDDAPKFIKDLFTYVLNRAKKGAPTEIYKKIEEIQVSGDGKSALFVNERLLNFPTIVVPQIFGSIREDLSGFETKYKTIIYIQKLRIVETDGSEAKVGASSNGSSGVAGKKKGKMGKAEKKRAAAAALANAEIEFDNPEDRVLFEIKEGKEIHFDYPVHMDVEPGSKFHSTEKDGKKWNPFRRLVIMDDKRFDAFLKKGSDGIII” stands “not soluble”. On to “MGSDKIHHHHHHAAENLPIQNELFSEYFKKLNPTNYNTKMNRELYIFFKQMFNIDIVKDNIDNANFPTFEEVLGLLDLAEQRKEAFRNFGLENLNNRSDSIRFLRQYLILLMAEAIHNTPRTDNKYHKLLVENLLENDLLLDTTFISANYDIHIDNTVTGLRDKNDLPIMLDYGVEFTNFKEELNWRKPKEPLIKLYKIHGSLNWLYCPICNSVTLTPHEGGVMKLIENSSETKCLECGELTEPIIVPPTYFKNMSNIFLSNVWNETEKTLRDTDLLIFCGYSFPEADMHIKYMLKRVQTNRKKPPLKIMVFNNHSQKQRITLKKEEGRYKRFLGEDVIFTDNSFQDFSVNPLRFIKNI”, for which the “soluble on expression in E. coli” value is “not soluble”.
